From US20060242739A1, “Plant nucleotide-sugar pyrophosphatase/phosphodiesterase (nppase), method of obtaining same and use of same in the production of assay devices and in the production of transgenic plants” (Universidad Publica De Navarra, priority 2002, published 2006)
Each block holds one molecule with its values, some of them ahead of it.

Columns and labels:
[1] = target: T1, NPPase from barley leaves (Hordeum vulgare, UniProt Q687E1); assay: Enzymatic test of soluble NPPase from barley leaves: kinetic parameters, substrate specificity, effectors; settings: qualitative
T1 sequence (Q687E1 19-368): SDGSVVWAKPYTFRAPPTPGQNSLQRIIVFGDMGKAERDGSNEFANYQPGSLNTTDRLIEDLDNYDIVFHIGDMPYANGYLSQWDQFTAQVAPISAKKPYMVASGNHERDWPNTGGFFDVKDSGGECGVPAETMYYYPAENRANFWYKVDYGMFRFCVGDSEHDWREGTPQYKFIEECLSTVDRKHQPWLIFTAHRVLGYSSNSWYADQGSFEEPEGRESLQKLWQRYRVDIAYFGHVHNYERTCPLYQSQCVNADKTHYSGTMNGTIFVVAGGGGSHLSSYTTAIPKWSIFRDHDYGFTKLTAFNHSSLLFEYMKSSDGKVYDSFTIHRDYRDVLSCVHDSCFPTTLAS

[2] = slightly basic pH

resistance of NPPase to ionic detergents and proteases [1]: resistant
B1: Proteinase K: protease (Boehringer) (protein, UniProt P06873 106-384, looked up)
Proteinase K: AAQTNAPWGLARISSTSPGTSTYYYDESAGQGSCVYVIDTGIEASHPEFEGRAQMVKTYYYSSRDGNGHGTHCAGTVGSRTYGVAKKTQLFGVKVLDDNGSGQYSTIIAGMDFVASDKNNRNCPKGVVASLSLGGGYSSSVNSAAARLQSSGVMVAVAAGNNNADARNYSPASEPSVCTVGASDRYDRRSSFSNYGSVLDIFGPGTSILSTWIGGSTRSISGTSMATPHVAGLAAYLMTLGKTTAASACRYIADTANKGDLSNIPFGTVNLLAYNNYQA

B2: NPPase: plant nucleotide pyrophosphatase/phosphodiesterase, soluble 70-kDa isoform purified from barley leaves (protein)
chain: MVSRKRGGGGGVAMAVAMLLAAASASRPSSSLEGFQPLSKIAVHKATVDLHGSAFVSATPALLGDQGEDTEWVTVKYGWANPSADDWIAVFSPADFISGSCPNPSRYPDEPLLCTAPIKYQFANYSANYVYWGKGSIRFQLINQRYDFSFALFTGGLENPKLVAVSEAISFKNPKAPVYPRLAQGKSYDEMTVTWTSGYDISEAYPFVEWGMVVAGAAAPTRTAAGTLTFNRGSMCGDPDRTVGWRDPGFIHTAFLRDLWPNKEYYYKIGHELSDGSIVWGKQYTFRAPPFPGQNSLQRIIVFGDMGKAERDGSNEFANYQPGSLNTTDRLVEDLDNYDIVFHIGDLPYANGYISQWDQFTAQVAPITAKKPYMIASGNHERDWPNTGGFFDVKDSGGECGVPAETMYYYPAENRANFWYKVDYGMFRFCIADSEHDWREGTDQYKFIEQCLSTVDRKHQPWLIFAAHRVLGYSSNWWYADQQSFEEPEGRESLQRLWQRHRVDVAFFGHVHNYERTCPMYQSQCVSGERRRYSGTMNGTIFVVAGGGGSHLSDYTSAIPKWSVFRDRDFGFVKLTAFNHSSLLFEYKKSSDGKVYDSFTVERDYRDVLSCVHDSCLPTTLAS
pH sensitivity [2]: sensitive
